Results taken from patent publication US20190062453A1 (Hoffmann-La Roche, published 2019).
Changes are numbered by the printed parent chain. Numbers in names are those of the source. Values belong to the binder of their own block, whether it stands above or below them.

Columns and labels:
[1] = target: murine FAP on recombinant 3T3 cells (murine, UniProt P97321 1-761); test: cell-based or functional assay
[2] = target: T1, cynomolgus DR5 in the TagLite assay (cynomolgus); test: TagLite TR-FRET on cells
T1 construct: also called cy DR5 (TagLite)

[3] = target: T2, Human FAP ectodomain + poly-lys-tag + his6-tag (human, UniProt Q12884 27-760); test: SPR (Biacore), bispecific antibody bound to immobilised human DR5-Fc, recombinant human FAP as second analyte (simultaneous binding)
T2 construct: also called recombinant soluble human FAP; hFAP

[4] = target: T2, Human FAP ectodomain + poly-lys-tag + …; test: SPR, bispecific captured by anti human IgG (Fc), human FAP 5 µg/ml
[5] = target: T3, human DR5 (recombinant, fusion format not stated for the assay) (human, UniProt O14763 56-207); test: SPR (Biacore), 2+2 over immobilised DR5 ECD
T3 construct: all antigen constructs carry ECD aa 56-207; also called hu DR5; huDR5

[6] = target: T3, human DR5 (recombinant, fusion format …); test: SPR (Biacore), affinity, 2+2 captured and DR5 injected
[7] = target: T4, Cynom. DR5 (ECD)-AcTev-Fc-Avi (cynomolgus); test: as above
T4 construct: also called cynomolgus DR5; cy DR5

human FAP on cells = target: T5, human FAP on cells (human, UniProt Q12884 1-760); test: FACS on recombinant HEK293 cells expressing human FAP
T5 construct: whole, on cells; also called human FAP expressed on recombinant HEK293 cells; FAP on GM05389 fibroblasts

Recombinant human DR4-Fc = target: T6, Recombinant human DR4-Fc (human, UniProt O00220 109-239); test: SPR, receptor-Fc on CM5 chip
T6 construct: bought; also called huDR4Fc; human DR4 (TNFRSF10A); Fc part of the bought chimera not given

[8] = target: T7, Recombinant human DcR1-Fc (human, UniProt O14798 26-221); test: SPR, receptor-Fc on CM5 chip
T7 construct: bought; also called huDcR1Fc; human DcR1 (TNFRSF10C); Fc part of the bought chimera not given
T7 sequence (looked up): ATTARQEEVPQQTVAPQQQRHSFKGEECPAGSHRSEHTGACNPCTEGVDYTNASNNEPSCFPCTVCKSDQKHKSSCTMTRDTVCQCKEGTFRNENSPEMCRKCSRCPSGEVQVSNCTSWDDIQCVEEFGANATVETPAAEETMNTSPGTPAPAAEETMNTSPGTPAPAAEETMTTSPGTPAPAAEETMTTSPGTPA

[9] = target: T8, Recombinant human DcR2-Fc (human, UniProt Q9UBN6 56-211); test: SPR, receptor-Fc on CM5 chip
T8 construct: bought for the phage antibodies; also called huDcR2Fc; human DcR2 (TNFRSF10D); not shown: Fc part of the chimera
T8 sequence (looked up): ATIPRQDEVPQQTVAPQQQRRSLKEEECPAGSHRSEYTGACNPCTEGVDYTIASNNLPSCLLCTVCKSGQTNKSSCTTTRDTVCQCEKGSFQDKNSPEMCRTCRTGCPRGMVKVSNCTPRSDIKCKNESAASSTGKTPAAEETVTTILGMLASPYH

Recombinant human OPG-Fc = target: T9, Recombinant human OPG-Fc (human, UniProt O00300 22-194); test: SPR, receptor-Fc on CM5 chip
T9 construct: bought; also called rhuOPGFc; human Osteoprotegerin; Fc part of the bought chimera not given
T9 sequence (looked up): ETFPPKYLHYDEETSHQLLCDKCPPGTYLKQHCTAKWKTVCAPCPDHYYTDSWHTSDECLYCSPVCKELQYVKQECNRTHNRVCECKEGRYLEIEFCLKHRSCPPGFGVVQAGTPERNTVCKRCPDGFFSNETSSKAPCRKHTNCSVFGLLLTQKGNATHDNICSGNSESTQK

[10] = target: T10, murine DR5 ECD-AcTev-hu Fc-Avi (murine, UniProt Q9QZM4 53-153); test: SPR, biotinylated DR5 on SA chip
T10 construct: range 53-153; also called mouse DR5

[11] = target: T11, Hu DR5 (ECD)-AcTev-Fc-Avi (human); test: SPR (Biacore), biotinylated human DR5-Fc on a streptavidin chip, bispecific antibody as first analyte
T11 construct: dimeric Fc fusion, biotinylated on the Avi tag where immobilised on streptavidin; also called human DR5-Fc; huDR5Fc

[12] = target: T2, Human FAP ectodomain + poly-lys-tag + …; test: SPR (Biacore), bispecific antibody bound to immobilised human DR5-Fc, recombinant soluble human FAP as second analyte (simultaneous binding)
[13] = target: T12, Murine FAP ectodomain + poly-lys-tag + his6-tag (murine, UniProt P97321 27-761); test: SPR (Biacore), bispecific antibody bound to immobilised human DR5-Fc, recombinant soluble murine FAP as second analyte (simultaneous binding)
T12 construct: also called recombinant soluble murine FAP

B3: DR5(5E11)-28H1 VHCL 2 + 2 P329GLALA (bispecific antibody, human IgG1, kappa, L234A L235A)
heavy: not shown
light: EIVLTQSPGTLSLSPGERATLSCRASQSVSSSYLAWYQQKPGQAPRLLIYGASSRATGIPDRFSGSGSGTDFTLTISRLEPEDFAVYYCQQGTTHPITFGQGTKVEIKRTVAAPSVFIFPPSDEQLKSGTASVVCLLNNFYPREAKVQWKVDNALQSGNSQESVTEQDSKDSTYSLSSTLTLSKADYEKHKVYACEVTHQGLSSPVTKSFNRGEC
chain: EIVLTQSPGTLSLSPGERATLSCRASQSVSRSYLAWYQQKPGQAPRLLIIGASTRATGIPDRFSGSGSGTDFTLTISRLEPEDFAVYYCQQGQVIPPTFGQGTKVEIKSSASTKGPSVFPLAPSSKSTSGGTAALGCLVKDYFPEPVTVSWNSGALTSGVHTFPAVLQSSGLYSLSSVVTVPSSSLGTQTYICNVNHKPSNTKVDKKVEPKSCD
notes: C-terminal lysine removed, L234A L235A P329G in Fc; also called DR5TAA-0057; format A
Cell Death Detection ELISA, DLD-1 cells with 3T3 cells expressing murine FAP [1]: 10 fold | Avidity [2]: 0.6 nM | FAP [RU max] [4]: 40.8 RU

B4: DR5TAA-0035 (bispecific antibody, human IgG1, kappa)
heavy: not shown
light: ADIVMTQTASPVSAAVGGTVTINCQASQSISSSYVSWYQQKPGQPPKLLIYKASTLASGVPSRFSGSGSGTQLSLTIRGVQCDDAATYYCLYGYSDVSSSEYVFGGGTEVVVRRTVAAPSVFIFPPSDEQLKSGTASVVCLLNNFYPREAKVQWKVDNALQSGNSQESVTEQDSKDSTYSLSSTLTLSKADYEKHKVYACEVTHQGLSSPVTKSFNRGEC
chain: B3 chain
notes: also called 0016-28H1
Cell Death Detection ELISA, DLD-1 cells with 3T3 cells expressing murine FAP [1]: 10 fold | Avidity [2]: 0.7 nM | Avidity [5]: 0.08 nM | Kd [6]: 5.1 nM | Kd [7]: 2 nM | binding result [3]: binds

B6: DR5TAA-0078 (bispecific antibody)
heavy: not shown
chain: B3 chain with R31S, I50Y, T54S, Q93T, V94T, I95H, P97I
light: B3 light with S31R, Y50I, S54T, T93Q, T94V, H95I, I97P
notes: also called format D
FAP [RU max] [4]: 38.4 RU

B11: 18F11 (antibody, IgG1, V domains shown)
VH: not shown
VL: EIVLTQSPGTLSLSPGERATLSCRASQSVSSSYLAWYQQKPGQAPRLLIYGASSRATGIPDRFSGSGSGTDFTLTISRLEPEDFAVYYCQQGQLPPITFGQGTKVEIK
notes: hu IgG1
binding result (Recombinant human DR4-Fc): no binding (tested: 500, 100 and 25 nM) | binding result [8]: no binding (tested: 500, 100 and 25 nM) | binding result [9]: no binding (tested: 500, 100 and 25 nM) | binding result (Recombinant human OPG-Fc): no binding (tested: 500, 100 and 25 nM) | binding result [10]: no binding (tested: 500, 100 and 25 nM)

B12: Drozitumab-X-FAP_B (2 + 2) (bispecific antibody, human IgG1, lambda)
heavy: not shown
chain: not shown
light: SELTQDPAVSVALGQTVRITCSGDSLRSYYASWYQQKPGQAPVLVIYGANNRPSGIPDRFSGSSSGNTASLTITGAQAEDEADYYCNSADSSGNHVVFGGGTKLTVLGQPKAAPSVTLFPPSSEELQANKATLVCLISDFYPGAVTVAWKADSSPVKAGVETTTPSKQSNNKYAASSYLSLTPEQWKSHRSYSCQVTHEGSTVEKTVAPTECS
notes: 4G8 VL-CH1 fused to the C-terminus of the Drozitumab heavy chain; also called GA803_A01_E02A_015
binding result (human FAP on cells): binds | binding result [11]: binds | binding result [12]: binds | binding result [13]: binds

Further lines, with some results ahead:

Avidity [2]: 0.4 nM | binding result [3]: binds
B1: DR5(5E11)-28H1 VHCL 2 + 2 (bispecific antibody, human IgG1, kappa)
heavy: not shown
light: B3 light
chain: B3 chain
notes: also called DR5TAA-0030
Cell Death Detection ELISA, DLD-1 cells with 3T3 cells expressing murine FAP [1]: 10 fold

FAP [RU max] [4]: 41.9 RU
B2: DR5TAA-0077 (bispecific antibody, human IgG1, kappa)
heavy: not shown
chain: not shown
light: B3 light with S31R, Y50I, S54T, T93Q, T94V, H95I, I97P
notes: also called format C

FAP [RU max] [4]: 7.2 RU
B5: DR5TAA-0081 (bispecific antibody, human IgG1, kappa, L234A L235A)
heavy: not shown
light: B3 light
chain: EVQLLESGGGLVQPGGSLRLSCAASGFTFSSHAMSWVRQAPGKGLEWVSAIWASGEQYYADSVKGRFTISRDNSKNTLYLQMNSLRAEDTAVYYCAKGWLGNFDYWGQGTLVTVSSASVAAPSVFIFPPSDEQLKSGTASVVCLLNNFYPREAKVQWKVDNALQSGNSQESVTEQDSKDSTYSLSSTLTLSKADYEKHKVYACEVTHQGLSSPVTKSFNRGEC
notes: also called format F

binding result (human FAP on cells): binds
B7: 4G8 IgG (antibody, V domains shown)
VH: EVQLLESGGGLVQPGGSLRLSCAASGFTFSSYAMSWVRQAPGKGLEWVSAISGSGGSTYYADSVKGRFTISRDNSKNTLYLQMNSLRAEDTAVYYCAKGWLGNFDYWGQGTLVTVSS
VL: B11 VL with S31R, Y50I, S54T, L94V, P95I, I97P
notes: also called FAP (4G8) IgG molecule; parental 4G8 IgG

binding result (Recombinant human DR4-Fc): no binding (tested: 500, 100 and 25 nM) | binding result [8]: no binding (tested: 500, 100 and 25 nM) | binding result [9]: no binding (tested: 500, 100 and 25 nM) | binding result (Recombinant human OPG-Fc): no binding (tested: 500, 100 and 25 nM) | binding result [10]: no binding (tested: 500, 100 and 25 nM)
B8: 22E9 (antibody, IgG1, V domains shown)
VH: not shown
VL: B11 VL with Q93S, L94N, P95Q, I97V
notes: hu IgG1

binding result (Recombinant human DR4-Fc): no binding (tested: 500, 100 and 25 nM) | binding result [8]: no binding (tested: 500, 100 and 25 nM) | binding result [9]: no binding (tested: 500, 100 and 25 nM) | binding result (Recombinant human OPG-Fc): no binding (tested: 500, 100 and 25 nM) | binding result [10]: no binding (tested: 500, 100 and 25 nM)
B9: 21H3 (antibody, IgG1, V domains shown)
VH: not shown
VL: B11 VL with Q93S, L94Q
notes: hu IgG1

binding result (Recombinant human DR4-Fc): no binding (tested: 500, 100 and 25 nM) | binding result [8]: no binding (tested: 500, 100 and 25 nM) | binding result [9]: no binding (tested: 500, 100 and 25 nM) | binding result (Recombinant human OPG-Fc): no binding (tested: 500, 100 and 25 nM) | binding result [10]: no binding (tested: 500, 100 and 25 nM)
B10: 20F2 (antibody, IgG1, V domains shown)
VH: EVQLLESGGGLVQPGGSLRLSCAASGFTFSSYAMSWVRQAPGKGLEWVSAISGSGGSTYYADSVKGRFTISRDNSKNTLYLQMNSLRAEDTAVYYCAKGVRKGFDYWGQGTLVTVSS
VL: B11 VL with Q93E, L94S, I97P
notes: hu IgG1; also called DR5 (20F2)

binding result (human FAP on cells): binds
B13: 4G8_scFab_HC (bispecific antibody, human IgG1, kappa, lambda)
heavy: not shown
light: B12 light
notes: also called GA803_A01_B02A_001; Drozitumab-scFab-FAP
